Drawing on the Human Domainome abundance scans (Beltran et al. 2025), this text covers abundance fitness for 46 variants.

The chains are these.
B1: Transcription elongation regulator 1-like protein, residues 448 to 504; numbered along this chain, Q5VWI1 (parent)
chain: LPLEERVTHFRDMLLERGVSAFSTWEKELHKIVFDPRYLLLNSEERKQIFEQFVKTR

± gives the uncertainty stated by the source.

Variants of B1 are the subject of this data set. The data set is described as follows: abundance fitness (aPCA) (normalised: wild type 0, dead -1); higher = more abundant; growth selection in yeast, the domain comes from the species named. The settings on record: Homo sapiens.
With LPLEERVTHFRDMSLERGVSAFSTWEKELHKIVFDPRYLLLNSEERKQIFEQFVKTR, the abundance fitness was -0.831 ± 0.12.
Consider LPLEERVTHFRDMALERGVSAFSTWEKELHKIVFDPRYLLLNSEERKQIFEQFVKTR, for which the abundance fitness is -0.701 ± 0.12.
The result for LPLEERVTHFRDMKLERGVSAFSTWEKELHKIVFDPRYLLLNSEERKQIFEQFVKTR reads -0.905 ± 0.34; that for LPLEERVTHFRDMGLERGVSAFSTWEKELHKIVFDPRYLLLNSEERKQIFEQFVKTR, -0.751 ± 0.18.
To LPLEERVTHFRDMPLERGVSAFSTWEKELHKIVFDPRYLLLNSEERKQIFEQFVKTR belongs -0.251 ± 0.42; to LPLEERVTHFRDMWLERGVSAFSTWEKELHKIVFDPRYLLLNSEERKQIFEQFVKTR, -0.093 ± 0.21; to LPLEERVTHFRDMRLERGVSAFSTWEKELHKIVFDPRYLLLNSEERKQIFEQFVKTR, -0.739 ± 0.11.
As for LPLEERVTHFRDMHLERGVSAFSTWEKELHKIVFDPRYLLLNSEERKQIFEQFVKTR, the abundance fitness is -0.997 ± 0.43.
Regarding LPLEERVTHFRDMFLERGVSAFSTWEKELHKIVFDPRYLLLNSEERKQIFEQFVKTR, the abundance fitness is -0.817 ± 0.44.
With LPLEERVTHFRDMVLERGVSAFSTWEKELHKIVFDPRYLLLNSEERKQIFEQFVKTR, the abundance fitness is -0.967 ± 0.34.
For LPLEERVTHFRDMMLERGVSAFSTWEKELHKIVFDPRYLLLNSEERKQIFEQFVKTR, the abundance fitness was -0.066 ± 0.33.
The result for LPLEERVTHFRDMCLERGVSAFSTWEKELHKIVFDPRYLLLNSEERKQIFEQFVKTR reads -0.561 ± 0.4; that for LPLEERVTHFRDMDLERGVSAFSTWEKELHKIVFDPRYLLLNSEERKQIFEQFVKTR, -0.484 ± 0.22; that for LPLEERVTHFRDMTLERGVSAFSTWEKELHKIVFDPRYLLLNSEERKQIFEQFVKTR, -0.528 ± 0.34.
To LPLEERVTHFCDMLLERGVSAFSTWEKELHKIVFDPRYLLLNSEERKQIFEQFVKTR belongs -0.5 ± 0.36; to LPLEERVTHFMDMLLERGVSAFSTWEKELHKIVFDPRYLLLNSEERKQIFEQFVKTR, -0.411 ± 0.29.
The result for LPLEERVTHFKDMLLERGVSAFSTWEKELHKIVFDPRYLLLNSEERKQIFEQFVKTR reads -0.204 ± 0.21; that for LPLEERVTHFPDMLLERGVSAFSTWEKELHKIVFDPRYLLLNSEERKQIFEQFVKTR, 0.183 ± 0.22.
On to LPLEERVTHFEDMLLERGVSAFSTWEKELHKIVFDPRYLLLNSEERKQIFEQFVKTR, for which the abundance fitness is -0.437 ± 0.23.
To LPLEERVTHFFDMLLERGVSAFSTWEKELHKIVFDPRYLLLNSEERKQIFEQFVKTR belongs -0.248 ± 0.4.
On to LPLEERVTHFADMLLERGVSAFSTWEKELHKIVFDPRYLLLNSEERKQIFEQFVKTR, for which the abundance fitness was -0.544 ± 0.24.
To LPLEERVTHFGDMLLERGVSAFSTWEKELHKIVFDPRYLLLNSEERKQIFEQFVKTR belongs -0.586 ± 0.26; to LPLEERVTHFTDMLLERGVSAFSTWEKELHKIVFDPRYLLLNSEERKQIFEQFVKTR, -0.15 ± 0.32.
To LPLEERVTHFLDMLLERGVSAFSTWEKELHKIVFDPRYLLLNSEERKQIFEQFVKTR belongs -0.396 ± 0.17.
For LPLEERVTHFWDMLLERGVSAFSTWEKELHKIVFDPRYLLLNSEERKQIFEQFVKTR, the abundance fitness is -0.365 ± 0.32.
The result for LPLEERVTHFSDMLLERGVSAFSTWEKELHKIVFDPRYLLLNSEERKQIFEQFVKTR reads -0.695 ± 0.32; that for LPLEERVTHFVDMLLERGVSAFSTWEKELHKIVFDPRYLLLNSEERKQIFEQFVKTR, -0.626 ± 0.3; that for LPLEERVTHFDDMLLERGVSAFSTWEKELHKIVFDPRYLLLNSEERKQIFEQFVKTR, -0.909 ± 0.16.
To LPLEERVTHFYDMLLERGVSAFSTWEKELHKIVFDPRYLLLNSEERKQIFEQFVKTR belongs -0.259 ± 0.4; to LPLEERVTHFQDMLLERGVSAFSTWEKELHKIVFDPRYLLLNSEERKQIFEQFVKTR, -0.244 ± 0.15.
As for LPLEERVTTFRDMLLERGVSAFSTWEKELHKIVFDPRYLLLNSEERKQIFEQFVKTR, the abundance fitness is -0.456 ± 0.15.
Take LPLEERVTDFRDMLLERGVSAFSTWEKELHKIVFDPRYLLLNSEERKQIFEQFVKTR: the abundance fitness is -0.024 ± 0.43.
To LPLEERVTWFRDMLLERGVSAFSTWEKELHKIVFDPRYLLLNSEERKQIFEQFVKTR belongs -0.328 ± 0.31; to LPLEERVTFFRDMLLERGVSAFSTWEKELHKIVFDPRYLLLNSEERKQIFEQFVKTR, -0.475 ± 0.48.
The result for LPLEERVTSFRDMLLERGVSAFSTWEKELHKIVFDPRYLLLNSEERKQIFEQFVKTR reads -0.073 ± 0.12; that for LPLEERVTVFRDMLLERGVSAFSTWEKELHKIVFDPRYLLLNSEERKQIFEQFVKTR, -0.274 ± 0.19; that for LPLEERVTLFRDMLLERGVSAFSTWEKELHKIVFDPRYLLLNSEERKQIFEQFVKTR, 0.279 ± 0.11.
To LPLEERVTMFRDMLLERGVSAFSTWEKELHKIVFDPRYLLLNSEERKQIFEQFVKTR belongs 0.266 ± 0.075; to LPLEERVTGFRDMLLERGVSAFSTWEKELHKIVFDPRYLLLNSEERKQIFEQFVKTR, -0.554 ± 0.23; to LPLEERVTYFRDMLLERGVSAFSTWEKELHKIVFDPRYLLLNSEERKQIFEQFVKTR, -0.236 ± 0.2.
In the case of LPLEERVTKFRDMLLERGVSAFSTWEKELHKIVFDPRYLLLNSEERKQIFEQFVKTR, the abundance fitness came to 0.157 ± 0.089.
For the variant LPLEERVTIFRDMLLERGVSAFSTWEKELHKIVFDPRYLLLNSEERKQIFEQFVKTR, the abundance fitness is 0.378 ± 0.39.
For the variant LPLEERVTQFRDMLLERGVSAFSTWEKELHKIVFDPRYLLLNSEERKQIFEQFVKTR, the abundance fitness is 0.232 ± 0.15.
In the case of LPLEERVTRFRDMLLERGVSAFSTWEKELHKIVFDPRYLLLNSEERKQIFEQFVKTR, the abundance fitness is -0.202 ± 0.14.
To LPLEERVTEFRDMLLERGVSAFSTWEKELHKIVFDPRYLLLNSEERKQIFEQFVKTR belongs -0.234 ± 0.35; to LPLEERVTAFRDMLLERGVSAFSTWEKELHKIVFDPRYLLLNSEERKQIFEQFVKTR, 0.001 ± 0.076.
